Columns and labels:
[1] = substrate: NC(=O)c1ccc[n+]([C@@H]2O[C@H](COP(=O)(O)OP(=O)(O)OC[C@H]3O[C@@H](n4cnc5c(N)ncnc54)[C@H](OP(=O)(O)O)[C@@H]3O)[C@@H](O)[C@H]2O)c1; assay: Dynamical parameters to coenzyme, variant S156C; format: biochemical, Zymomonas mobilis; details: other: NADP 0.01 to 3 mM, ribitol, pH 9.0
Description: (§1) There were no differences between the expression amount of various amino acid variants of Ser 156 and the expression amount of wide-type. The dynamical parameter of each of variants was confirmed using the above variants.

[2] = substrate: NC(=O)c1ccc[n+]([C@@H]2O[C@H](COP(=O)(O)OP(=O)(O)OC[C@H]3O[C@@H](n4cnc5c(N)ncnc54)[C@H](OP(=O)(O)O)[C@@H]3O)[C@@H](O)[C@H]2O)c1; assay: Dynamical parameters to coenzyme, variant S156W; format: biochemical, Zymomonas mobilis; details: other: NADP 0.01 to 3 mM, ribitol, pH 9.0
Description: as §1

[3] = substrate: NC(=O)c1ccc[n+]([C@@H]2O[C@H](COP(=O)(O)OP(=O)(O)OC[C@H]3O[C@@H](n4cnc5c(N)ncnc54)[C@H](OP(=O)(O)O)[C@@H]3O)[C@@H](O)[C@H]2O)c1; assay: Dynamical parameters to coenzyme, variant S156D; format: biochemical, Zymomonas mobilis; details: other: NADP 0.01 to 3 mM, ribitol, pH 9.0
Description: In addition, the present invention provides a ribitol dehydrogenase mutant selected from the group consisting of a) a mutant, in which serine, an amino acid at position 156 of the ribitol dehydrogenase having an amino acid sequence as set forth in SEQ ID NO: 4 is substituted with aspartic acid; and b) a mutant, in which tyrosine, an amino acid at position 51 of the ribitol dehydrogenase having an amino acid sequence as set forth in SEQ ID NO: 4 is substituted with aspartic acid and serine, an amino acid at position 156 is substituted with alanine.
The mutants have preferably amino acid sequences as set forth in SEQ ID NOS: 5 and 6, respectively, but the present invention is not limited thereto.
as §1

[4] = substrate: NC(=O)c1ccc[n+]([C@@H]2O[C@H](COP(=O)(O)OP(=O)(O)OC[C@H]3O[C@@H](n4cnc5c(N)ncnc54)[C@H](OP(=O)(O)O)[C@@H]3O)[C@@H](O)[C@H]2O)c1; assay: Dynamical parameters to coenzyme, variant S156G; format: biochemical, Zymomonas mobilis; details: other: NADP 0.01 to 3 mM, ribitol, pH 9.0
Description: as §1

[5] = Production of L-ribulose from ribitol with cell bodies of recombinant strains expressing the variants; format: cell-based, E. coli; details: whole cells, 25° C., 6 hours
Description: The following experiments were performed in order to produce L-ribulose using a ribitol dehydrogenase variant having double coenzyme specificity. The variants prepared by using the method of Example 5-3 were expressed using the method of Example 2; the cell bodies were only collected by centrifuging (8000×g for 10 minutes) the recombinant strain culture solution; and then the cell bodies were washed with distilled water twice. The final Cell OD was measured and the same amount of cells was used for a production experiment. The ribitol and each of recombinant enzyme variants were subjected to an enzyme reaction in 20 mM of Tris-HCl buffer (pH 9.5) at a temperature of 25° C. for 6 hours.

[6] = substrate: NC(=O)c1ccc[n+]([C@@H]2O[C@H](COP(=O)(O)OP(=O)(O)OC[C@H]3O[C@@H](n4cnc5c(N)ncnc54)[C@H](OP(=O)(O)O)[C@@H]3O)[C@@H](O)[C@H]2O)c1; assay: Dynamical parameters to coenzyme, variant S156Y; format: biochemical, Zymomonas mobilis; details: other: NADP 0.01 to 3 mM, ribitol, pH 9.0
Description: as §1

[7] = substrate: NC(=O)c1ccc[n+]([C@@H]2O[C@H](COP(=O)(O)OP(=O)(O)OC[C@H]3O[C@@H](n4cnc5c(N)ncnc54)[C@H](OP(=O)(O)O)[C@@H]3O)[C@@H](O)[C@H]2O)c1; assay: Dynamical parameters to coenzyme, variant S156E; format: biochemical, Zymomonas mobilis; details: other: NADP 0.01 to 3 mM, ribitol, pH 9.0
Description: as §1

[8] = substrate: NC(=O)c1ccc[n+]([C@@H]2O[C@H](COP(=O)(O)OP(=O)(O)OC[C@H]3O[C@@H](n4cnc5c(N)ncnc54)[C@H](OP(=O)(O)O)[C@@H]3O)[C@@H](O)[C@H]2O)c1; assay: Dynamical parameters to coenzyme, variant S156T; format: biochemical, Zymomonas mobilis; details: other: NADP 0.01 to 3 mM, ribitol, pH 9.0
Description: as §1

[9] = substrate: NC(=O)c1ccc[n+]([C@@H]2O[C@H](COP(=O)(O)OP(=O)(O)OC[C@H]3O[C@@H](n4cnc5c(N)ncnc54)[C@H](OP(=O)(O)O)[C@@H]3O)[C@@H](O)[C@H]2O)c1; assay: Dynamical parameters to coenzyme, variant S156A; format: biochemical, Zymomonas mobilis; details: other: NADP 0.01 to 3 mM, ribitol, pH 9.0
Description: as §1

B1: Zymomonas mobilis ribitol dehydrogenase (SEQ ID NO: 4) variant S156C (Zymomonas mobilis subsp. mobilis ZM4 = ATCC 31821; S229C) (protein)
chain: MIPRPDHGEKSYRGSGKLQGRKALITGGDSGIGRATAIAYAREGADIVINYLPQEEPDAREVVALLQGEGHKVFALPGDLRNENFCVQLVQEASKRLGGLDILANIAGHQHYNESILTLSTADFDDTLKTNVYAMFWLCKEALKIMPAGSAIVNTCSTQGYRPSAILLDYATSKAAIANFTRALAIQLAPRGIRVNAVAPGPFWTPLQVSGGQPASAYSQFGANTPVKRPGQPVEIAPVYVFLACAENSYVTGEVYGVTGCAQIF
For B1, which Km [1] is on record?
Its Km is 170 ± 20 µM.

And the kcat [1]?
Its kcat is 2.05 ± 0.10 s⁻¹.

And the kcat/Km [1]?
The kcat/Km was 12100 M⁻¹ s⁻¹.

B2: Zymomonas mobilis ribitol dehydrogenase (SEQ ID NO: 4) variant S156W (Zymomonas mobilis subsp. mobilis ZM4 = ATCC 31821; S229W) (protein)
chain: MIPRPDHGEKSYRGSGKLQGRKALITGGDSGIGRATAIAYAREGADIVINYLPQEEPDAREVVALLQGEGHKVFALPGDLRNENFCVQLVQEASKRLGGLDILANIAGHQHYNESILTLSTADFDDTLKTNVYAMFWLCKEALKIMPAGSAIVNTWSTQGYRPSAILLDYATSKAAIANFTRALAIQLAPRGIRVNAVAPGPFWTPLQVSGGQPASAYSQFGANTPVKRPGQPVEIAPVYVFLACAENSYVTGEVYGVTGCAQIF
With B2 as the molecule, how does the Km [2] read?
The Km was 210 ± 30 µM.

And the kcat [2]?
Its kcat is 2.05 ± 0.11 s⁻¹.

And the kcat/Km [2]?
The kcat/Km was 9760 M⁻¹ s⁻¹.

B3: Zymomonas mobilis ribitol dehydrogenase (SEQ ID NO: 4) variant S156D, SEQ ID NO: 5 (Zymomonas mobilis subsp. mobilis ZM4 = ATCC 31821; N321D/S229D) (protein)
chain: MIPRPDHGEKSYRGSGKLQGRKALITGGDSGIGRATAIAYAREGADIVINYLPQEEPDAREVVALLQGEGHKVFALPGDLRNENFCVQLVQEASKRLGGLDILANIAGHQHYNESILTLSTADFDDTLKTNVYAMFWLCKEALKIMPAGSAIVNTDSTQGYRPSAILLDYATSKAAIANFTRALAIQLAPRGIRVNAVAPGPFWTPLQVSGGQPASAYSQFGANTPVKRPGQPVEIAPVYVFLACAEDSYVTGEVYGVTGCAQIF
For B3, which Km [3] is on record?
Its Km is 300 ± 30 µM.

What about the kcat [3] of the same molecule?
The kcat was 2.46 ± 0.21 s⁻¹.

What about the kcat/Km [3] of the same molecule?
The kcat/Km was 8200 M⁻¹ s⁻¹.

B4: Zymomonas mobilis ribitol dehydrogenase (SEQ ID NO: 4) variant S156G (Zymomonas mobilis subsp. mobilis ZM4 = ATCC 31821; S229G) (protein)
chain: MIPRPDHGEKSYRGSGKLQGRKALITGGDSGIGRATAIAYAREGADIVINYLPQEEPDAREVVALLQGEGHKVFALPGDLRNENFCVQLVQEASKRLGGLDILANIAGHQHYNESILTLSTADFDDTLKTNVYAMFWLCKEALKIMPAGSAIVNTGSTQGYRPSAILLDYATSKAAIANFTRALAIQLAPRGIRVNAVAPGPFWTPLQVSGGQPASAYSQFGANTPVKRPGQPVEIAPVYVFLACAENSYVTGEVYGVTGCAQIF
Which Km [4] does the source give for B4 here?
The Km was 340 ± 70 µM.

And the kcat [4]?
The kcat was 0.72 ± 0.08 s⁻¹.

And the kcat/Km [4]?
Its kcat/Km is 2120 M⁻¹ s⁻¹.

B5: S156D: mutant in which serine at position 156 of SEQ ID NO: 4 is substituted with aspartic acid (SEQ ID NO: 5) (protein)
chain: MIPRPDHGEKSYRGSGKLQGRKALITGGDSGIGRATAIAYAREGADIVINYLPQEEPDAREVVALLQGEGHKVFALPGDLRNENFCVQLVQEASKRLGGLDILANIAGHQHYNESILTLSTADFDDTLKTNVYAMFWLCKEALKIMPAGSAIVNTDSTQGYRPSAILLDYATSKAAIANFTRALAIQLAPRGIRVNAVAPGPFWTPLQVSGGQPASAYSQFGANTPVKRPGQPVEIAPVYVFLACAEDSYVTGEVYGVTGCAQIF
modifications: mutant
Which “L-ribulose produced, concentration” value ([5]; 20 mM Tris-HCl buffer pH 9.5, HPLC) does the source give for B5 here?
Its value is 1.21 g/L.

And the “conversion rate of L-ribulose in the whole cell level compared with wild-type (in words)” value ([5]; pH 9.5)?
Its value is “higher”.

B6: Zymomonas mobilis ribitol dehydrogenase (SEQ ID NO: 4) variant S156Y (Zymomonas mobilis subsp. mobilis ZM4 = ATCC 31821; S229Y) (protein)
chain: MIPRPDHGEKSYRGSGKLQGRKALITGGDSGIGRATAIAYAREGADIVINYLPQEEPDAREVVALLQGEGHKVFALPGDLRNENFCVQLVQEASKRLGGLDILANIAGHQHYNESILTLSTADFDDTLKTNVYAMFWLCKEALKIMPAGSAIVNTYSTQGYRPSAILLDYATSKAAIANFTRALAIQLAPRGIRVNAVAPGPFWTPLQVSGGQPASAYSQFGANTPVKRPGQPVEIAPVYVFLACAENSYVTGEVYGVTGCAQIF
What does the source list for B6?
Km [6]: 230 ± 130 µM; kcat [6]: 1.42 ± 0.16 s⁻¹; kcat/Km [6]: 6170 M⁻¹ s⁻¹

B7: Zymomonas mobilis ribitol dehydrogenase (SEQ ID NO: 4) variant S156E (Zymomonas mobilis subsp. mobilis ZM4 = ATCC 31821; S229E) (protein)
chain: MIPRPDHGEKSYRGSGKLQGRKALITGGDSGIGRATAIAYAREGADIVINYLPQEEPDAREVVALLQGEGHKVFALPGDLRNENFCVQLVQEASKRLGGLDILANIAGHQHYNESILTLSTADFDDTLKTNVYAMFWLCKEALKIMPAGSAIVNTESTQGYRPSAILLDYATSKAAIANFTRALAIQLAPRGIRVNAVAPGPFWTPLQVSGGQPASAYSQFGANTPVKRPGQPVEIAPVYVFLACAENSYVTGEVYGVTGCAQIF
What does the source list for B7?
Km [7]: 350 ± 40 µM; kcat [7]: 2.39 ± 0.15 s⁻¹; kcat/Km [7]: 6830 M⁻¹ s⁻¹

B8: Zymomonas mobilis ribitol dehydrogenase (SEQ ID NO: 4) variant S156T (Zymomonas mobilis subsp. mobilis ZM4 = ATCC 31821; S229T) (protein)
chain: MIPRPDHGEKSYRGSGKLQGRKALITGGDSGIGRATAIAYAREGADIVINYLPQEEPDAREVVALLQGEGHKVFALPGDLRNENFCVQLVQEASKRLGGLDILANIAGHQHYNESILTLSTADFDDTLKTNVYAMFWLCKEALKIMPAGSAIVNTTSTQGYRPSAILLDYATSKAAIANFTRALAIQLAPRGIRVNAVAPGPFWTPLQVSGGQPASAYSQFGANTPVKRPGQPVEIAPVYVFLACAENSYVTGEVYGVTGCAQIF
With B8 as the molecule, how does the Km [8] read?
The Km was 220 ± 30 µM.

And the kcat [8]?
The kcat was 1.64 ± 0.22 s⁻¹.

What about the kcat/Km [8] of the same molecule?
Its kcat/Km is 7450 M⁻¹ s⁻¹.

B9: Zymomonas mobilis ribitol dehydrogenase (SEQ ID NO: 4) variant S156A (Zymomonas mobilis subsp. mobilis ZM4 = ATCC 31821; S229A) (protein)
chain: MIPRPDHGEKSYRGSGKLQGRKALITGGDSGIGRATAIAYAREGADIVINYLPQEEPDAREVVALLQGEGHKVFALPGDLRNENFCVQLVQEASKRLGGLDILANIAGHQHYNESILTLSTADFDDTLKTNVYAMFWLCKEALKIMPAGSAIVNTASTQGYRPSAILLDYATSKAAIANFTRALAIQLAPRGIRVNAVAPGPFWTPLQVSGGQPASAYSQFGANTPVKRPGQPVEIAPVYVFLACAENSYVTGEVYGVTGCAQIF
Which Km [9] does the source give for B9 here?
The Km was 390 ± 130 µM.

And the kcat [9]?
Its kcat is 1.19 ± 0.07 s⁻¹.

And the kcat/Km [9]?
The kcat/Km was 3050 M⁻¹ s⁻¹.
